Consider two molecules from US20070031418A1 (published 2007).

In assay [1] the target is trkC receptor in stable trkC expressing CHO cells. The experiment in a line: cell-based or functional assay.
Assay [2] deals with trkC receptor of embryonic rat trigeminal neurons (rat) (UniProt Q03351). As to the kind of experiment: cell-based or functional assay.
The target in another assay is T1, human trkC (human, UniProt Q16288 32-429, limits assumed).
T1 construct: also called htrkC
As to the kind of experiment: BIAcore analysis (SPR); format not stated. On the technique in general: In SPR one partner is held on a chip, and binding of the other changes the refractive index at the surface.

trkC receptor of embryonic rat trigeminal neurons (rat), sequence (Q03351 32-864): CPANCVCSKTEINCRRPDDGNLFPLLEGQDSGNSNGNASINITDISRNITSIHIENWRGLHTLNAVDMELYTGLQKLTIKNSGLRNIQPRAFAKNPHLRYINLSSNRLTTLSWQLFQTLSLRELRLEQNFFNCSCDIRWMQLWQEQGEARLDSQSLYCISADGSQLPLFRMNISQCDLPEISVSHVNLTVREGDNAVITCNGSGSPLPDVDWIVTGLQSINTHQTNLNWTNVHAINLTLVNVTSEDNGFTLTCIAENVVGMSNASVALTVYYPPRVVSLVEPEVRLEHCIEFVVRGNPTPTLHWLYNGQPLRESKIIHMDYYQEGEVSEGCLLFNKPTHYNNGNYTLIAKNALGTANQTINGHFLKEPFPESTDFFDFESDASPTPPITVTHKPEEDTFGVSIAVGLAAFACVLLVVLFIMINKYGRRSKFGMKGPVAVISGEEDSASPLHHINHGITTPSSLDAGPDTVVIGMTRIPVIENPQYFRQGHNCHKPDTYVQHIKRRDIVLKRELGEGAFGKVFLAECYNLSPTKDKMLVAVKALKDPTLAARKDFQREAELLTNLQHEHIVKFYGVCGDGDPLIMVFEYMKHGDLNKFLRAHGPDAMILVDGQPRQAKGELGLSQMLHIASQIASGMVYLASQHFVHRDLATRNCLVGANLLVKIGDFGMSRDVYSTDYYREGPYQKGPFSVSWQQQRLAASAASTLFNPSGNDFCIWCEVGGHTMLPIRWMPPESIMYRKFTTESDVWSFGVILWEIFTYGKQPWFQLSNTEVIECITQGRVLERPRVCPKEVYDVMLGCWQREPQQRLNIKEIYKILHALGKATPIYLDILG

In assay [1], NT3 (ligand) returned a trkC tyrosine phosphorylation, half maximum effective concentration (EC50) of 1.09 nM. Moreover, the survival of embryonic rat trigeminal neuron cultures, EC50 in assay [2] came out at 0.00073 nM.

B1: humanized anti-trkC agonist antibody A5 (antibody, V domains shown)
VH: QVQLVQSGAEVKKPGASVKVSCKASGYTFTSYRIHWVRQAPGQGLEWMGEIYPSNARTNYNEKFKSRVTMTRDTSTSTVYMELSSLRSEDTAVYYCARKYYYGNTRRSWYFDVWGQGTTVTVS
VL: DIQMTQSPSSLSASVGDRVTITCRASESIDNYGISFLAWYQQKPGKAPKLLIYAASNRGSGVPSRFSGSGSGTDFTFTISSLQPEDIATYYCQQSKTVPRTFGQGTKLEIKR
As a reminder, the Kd is the free concentration of one partner at which half of the binding sites on the other are occupied at equilibrium, for simple one-to-one binding. As to B1, in the assay with human trkC, the Kd was around 0.28 nM.
